Measurements as given in US20220185901A1 (Bayer, published 2022).

Assays:
Assay in all cases: SPR, Biacore T200, antigen amine-coupled to the chip, antibody injected at 1.56-200 nM, 1:1 Langmuir fit, 25 C
[1] = target: T1, murine ALK-1-Fc (TPP-11724) (murine)
T1 construct: also called mouse ALK-1
Protocol: (§1) SPR experiments for quantitative binding analyses were performed using a Biacore T200 instrument (GE Healthcare Biacore, Inc.) equipped with Series S Sensor Chips CMS (GE Healthcare Biacore, Inc.). Binding assays were carried out at 25° C. with assay buffer HBS-EP+ (10 mM HEPES pH 7.4, 150 mM NaCl, 3 mM EDTA, 0.05% Surfactant P20). Antigens were covalently immobilized to the chip surface via amine coupling chemistry. The same proteins that had previously been used to isolate the antibodies of the invention during panning and screening [murine ALK-1-Fc SEQ ID NO: 114, human ALK-1-Fc SEQ ID NO: 116, as well as BMPR-2-Fc SEQ ID NO: 115 (human and murine extracellular are identical)] were used here as […] to determine KD values. Reagents for amine coupling (1-ethyl-3-(3-dimethylaminopropyl) carbodiimide hydrochloride (EDC), N-hydroxysuccinimide (NHS), ethanolamine-HCl pH 8.5) were used from the Amine Coupling Kit (GE Healthcare, product code BR-1000-50). The sensor chip surface was activated with a freshly prepared solution of 0.2 M EDC and 0.05 M NHS passed over the chip surface for 420 seconds at a flow rate of 10 μl/min, followed by an injection of antigen (dissolved to 0.5 μg/ml in immobilization buffer, 10 mM sodium acetate pH 5.0) with a target level of 50 RU. Excess of activated groups were blocked with a 1 molar solution of ethanolamine injected at a flow rate of 10 μl/min for 420 seconds.
(§2) The sensor surface was regenerated for 20 seconds with regeneration solution (glycine-HCl pH 1.5) after each assay cycle consisting of a single analyte injection.
(§3) Obtained sensorgrams were double-referenced, (reference cell correction followed by buffer sample subtraction). KD values were calculated based on the ratio of dissociation (kd) and association (kₐ) rate constants which were obtained by globally fitting sensorgrams with a first order 1:1 Langmuir binding model, implemented in the Biacore Evaluation Software Package (Biacore T200 Evaluation Software Version 2.0, GE Healthcare Biacore, Inc.).

[2] = target: T2, human ALK-1-Fc (TPP-11726) (human)
T2 construct: Used for panning, screening and SPR; also called hALK-1-Fc
T2 sequence (chain, as listed by the source limits assumed): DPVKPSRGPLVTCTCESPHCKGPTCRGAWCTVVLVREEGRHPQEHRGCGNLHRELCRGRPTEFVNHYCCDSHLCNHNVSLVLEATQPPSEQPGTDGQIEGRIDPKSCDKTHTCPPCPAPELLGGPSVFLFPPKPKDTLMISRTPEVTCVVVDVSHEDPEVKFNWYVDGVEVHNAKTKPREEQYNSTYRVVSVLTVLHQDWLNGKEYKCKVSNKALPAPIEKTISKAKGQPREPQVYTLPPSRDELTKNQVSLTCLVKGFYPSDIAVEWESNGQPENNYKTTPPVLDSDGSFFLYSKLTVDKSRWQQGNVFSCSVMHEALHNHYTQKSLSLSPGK
Protocol: as §1, §2, §3

[3] = target: T3, BMPR-2-FcHis6 (TPP-11725) (human)
T3 construct: also called human BMPR-2
T3 sequence (chain, as listed by the source limits assumed): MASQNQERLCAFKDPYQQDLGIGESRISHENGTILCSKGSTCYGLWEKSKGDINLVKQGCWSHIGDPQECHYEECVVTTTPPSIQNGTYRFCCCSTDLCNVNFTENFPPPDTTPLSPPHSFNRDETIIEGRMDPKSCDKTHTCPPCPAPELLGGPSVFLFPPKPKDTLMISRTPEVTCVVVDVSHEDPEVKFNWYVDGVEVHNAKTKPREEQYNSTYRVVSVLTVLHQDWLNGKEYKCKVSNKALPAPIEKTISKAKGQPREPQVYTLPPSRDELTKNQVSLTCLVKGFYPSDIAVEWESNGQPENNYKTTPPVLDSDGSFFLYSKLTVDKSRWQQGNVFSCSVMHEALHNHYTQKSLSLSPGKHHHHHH
Protocol: as §1, §2, §3

T1 sequence (chain, as listed by the source limits assumed): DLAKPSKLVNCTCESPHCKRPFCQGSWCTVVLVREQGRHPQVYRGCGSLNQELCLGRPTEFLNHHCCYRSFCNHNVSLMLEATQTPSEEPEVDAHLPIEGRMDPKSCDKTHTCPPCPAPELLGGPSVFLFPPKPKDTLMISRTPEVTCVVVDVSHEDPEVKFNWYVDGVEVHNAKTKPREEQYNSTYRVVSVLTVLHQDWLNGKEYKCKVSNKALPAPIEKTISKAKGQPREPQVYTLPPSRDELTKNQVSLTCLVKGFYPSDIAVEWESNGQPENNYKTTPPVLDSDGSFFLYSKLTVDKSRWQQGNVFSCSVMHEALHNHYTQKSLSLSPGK

Binder	Kd [1] [nM]	Kd [2] [nM]	Kd [3] [nM]
TPP-13660 (484A-M232-A14-scFv-Fc-hIgG2) (Fc fusion, Monospecific antibody (MsAB) against ALK-1; the construct name says scFv-Fc-hIgG2; not shown: human IgG2 Fc (and any linker), implied by the construct name scFv-Fc-hIgG2) EVQLLESGGGLVQPGGSLRLSCAASGFTFSSYAMSWVRQAPGKGLEWVANINQDGSEKNYVDSMRGRFTISRDNSKNTLYLQMNSLRAEDTAVYYCAREFDYWGQGTLVTVTSSGGGGSGGGGSGGGGSQSVLAQPPSASGTPGQRVTISCSGSSSNIGSNYVYWYQQLPGTAPKLLIYGNNKRPSGVPDRFSGSKSGTSASLAISGLRSEDEADYYCAAWDDSLNGRVFGGGTKLTVLGGGGSGGGGSGGGGSGVECPPCPAPPVAGPSVFLFPPKPKDTLMISRTPEVTCVVVDVSHEDPEVQFNWYVDGVEVHNAKTKPREEQFNSTFRVVSVLTVVHQDWLNGKEYKCKVSNKGLPAPIEKTISKTKGQPREPQVYTLPPSREEMTKNQVSLTCLVKGFYPSDIAVEWESNGQPENNYKTTPPMLDSDGSFFLYSKLTVDKSRWQQGNVFSCSVMHEALHNHYTQKSLSLSPG	25	8.5	–
TPP-13654 (484A-M233-M07-scFv-Fc-hIgG2) (Fc fusion, Monospecific antibody (MsAB) against ALK-1; the construct name says scFv-Fc-hIgG2; not shown: human IgG2 Fc (and any linker), implied by the construct name scFv-Fc-hIgG2) EVQLLESGGGLVQPGGSLRLSCAASGFTFSIYAMSWVRQAPGKGLEWVSAISGSGGSTYYADSVKGRFTISRDNSKNTLYLQMNSLRAEDTAVYYCARDFDYWGQGTLVTVTSSGGGGSGGGGSGGGGSQSVLTQPPSASGTPGQRVTISCSGSSSNIGSNYVYWYQQLPGTAPKLLIYGNINRPSGVPDRFSGSKSGTSASLAISGLRSEDEADYYCAAWDDSLNGRVFGGGTKLTVLGGGGSGGGGSGGGGSGVECPPCPAPPVAGPSVFLFPPKPKDTLMISRTPEVTCVVVDVSHEDPEVQFNWYVDGVEVHNAKTKPREEQFNSTFRVVSVLTVVHQDWLNGKEYKCKVSNKGLPAPIEKTISKTKGQPREPQVYTLPPSREEMTKNQVSLTCLVKGFYPSDIAVEWESNGQPENNYKTTPPMLDSDGSFFLYSKLTVDKSRWQQGNVFSCSVMHEALHNHYTQKSLSLSPG	25	8.6	–
TPP-13667 (484A-M198-J22-scFv-Fc-hIgG2) (Fc fusion, Monospecific antibody (MsAB) against BMPR-2; the first row says hIgG2; not shown: human IgG2 Fc (and any linker), implied by the construct name scFv-Fc-hIgG2) EVQLLESGGGLVQPGGSLRLSCAASGFTFSNAWMNWVRQAPGKGLEWVSSISSSSSYIYYADSVKGRFTISRDNSKNTLYLQMNSLRAEDTAVYYCARAVAAGGMFWGLDQWGQGTLVTVTSSGGGGSGGGGSGGGGSQSVLTQPPSASGTPGQRVTISCSGSRSNIGSNSVHWYQQLPGTAPKLLIYGNSNRPSGVPDRFSGSKSGTSASLAISGLRSEDEADYYCQSYDSSLNDHVVFGGGTKLTVLGGGGSGGGGSGGGGSGVECPPCPAPPVAGPSVFLFPPKPKDTLMISRTPEVTCVVVDVSHEDPEVQFNWYVDGVEVHNAKTKPREEQFNSTFRVVSVLTVVHQDWLNGKEYKCKVSNKGLPAPIEKTISKTKGQPREPQVYTLPPSREEMTKNQVSLTCLVKGFYPSDIAVEWESNGQPENNYKTTPPMLDSDGSFFLYSKLTVDKSRWQQGNVFSCSVMHEALHNHYTQKSLSLSPG	–	–	8.8
TPP-13469 (484A-M010-C06-scFv-Fc-hIgG2) (Fc fusion, Monospecific antibody (MsAB) against BMPR-2; the construct name says scFv-Fc-hIgG2; not shown: human IgG2 Fc (and any linker), implied by the construct name scFv-Fc-hIgG2) EVQLLESGGGLVQPGGSLRLSCAASGFTFSDYYMTWIRQAPGKGLEWVSSISGGSTYYADSRKGRFTISRDNSENTLYLQMNSLRAEDTAVYYCARDFGVAGWFGQYGMDVWGQGTLVTVSSGGGGSGGGGSGGGGSQSVLTQPPSASGTPGQRVTISCTGSSSNIGAGYDVHWYQQLPGTAPKLLIYRSNQRPSGVPDRFSGSKSGTSASLAISGLRSEDEADYYCSSYAGNYNLVFGGGTKLTVLGGGGSGGGGSGGGGSGVECPPCPAPPVAGPSVFLFPPKPKDTLMISRTPEVTCVVVDVSHEDPEVQFNWYVDGVEVHNAKTKPREEQFNSTFRVVSVLTVVHQDWLNGKEYKCKVSNKGLPAPIEKTISKTKGQPREPQVYTLPPSREEMTKNQVSLTCLVKGFYPSDIAVEWESNGQPENNYKTTPPMLDSDGSFFLYSKLTVDKSRWQQGNVFSCSVMHEALHNHYTQKSLSLSPG	–	–	6.2
